Assay results as given in patent US20090215639A1.

Molecular target: human full length IgG1 (Calbiochem) (human)
Assay: BIAcore SPR, IgG1 immobilized, soluble receptor injected

FcγRIIIa V158 (receptor)
koff: 0.0139 s⁻¹

FcγRIIIa F158 (receptor)
fold faster koff against FcγRIIIaV158: 6 fold
koff: 0.0858 s⁻¹
